Laboratory results as given in patent US20220306744A1 (CRESCENDO BIOLOGICS, published 2022).
Changes are numbered by the printed parent chain. One block for each binder: values may come before it.

Molecular target: T1, human PD-1 expressed on cells (CHO TREX human PD1 cell line, full-length human PD-1 sequence) (human, UniProt Q15116 21-288)
T1 construct: Also used for human PD-1 on Jurkat reporter cells, on PathHunter cells and on PHA-stimulated human CD4+ T cells; also called CHO human PD1 cells; CHO human PD-1 cells
Experiment: worded summary of the screens

T1 sequence (Q15116 21-288): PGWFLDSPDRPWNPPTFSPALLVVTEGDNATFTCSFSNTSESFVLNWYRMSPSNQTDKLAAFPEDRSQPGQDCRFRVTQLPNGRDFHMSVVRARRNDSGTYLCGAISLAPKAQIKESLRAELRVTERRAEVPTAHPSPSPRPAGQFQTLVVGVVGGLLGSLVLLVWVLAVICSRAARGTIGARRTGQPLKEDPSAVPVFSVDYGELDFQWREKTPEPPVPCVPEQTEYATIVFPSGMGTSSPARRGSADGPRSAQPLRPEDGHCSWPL

B1: 1.48b (VHH)
VHH: QVQLVESGGGLVKPGGSLRLSCAASGFTFSDSSMTWMRQAPGKGLEWVSYISSGGGVKFYADSVKGRFTISRDNAKNSLYLQMNSLRADDTAVYYCAREAPLRLGESPHDAFDIWGQGTMVTVSS
binding result: binds

B2: 1.63b (VHH)
VHH: B1 VHH with Q1E, A61T, W115S
binding result: binds

B3: 1.81b (VHH)
VHH: B1 VHH with Q1E, M37V, D89E, W115S
binding result: binds

B4: 1.76b (VHH)
VHH: B1 VHH with Q1E, M37I, W115S
binding result: binds

B5: 1.66b (VHH)
VHH: B1 VHH with A61T, N84D, I114T, W115S
binding result: binds

B6: 1.58b (VHH)
VHH: B1 VHH with S32N, S33T, S53T
binding result: binds

B7: 1.92b (VHH)
VHH: B1 VHH with Q1E, S32E, D89E, W115S
notes: also called Humabody 1.92b
binding result: binds

B8: 1.74b (VHH)
VHH: B1 VHH with Q1E, M37I, A61T, W115S
binding result: binds

B9: 1.51b (VHH)
VHH: B1 VHH with G56A, A61T
binding result: binds

B10: 1.97b (VHH)
VHH: B1 VHH with Q1E, S32I, D89E, W115S
binding result: binds

B11: 1.89b (VHH)
VHH: B1 VHH with Q1E, S32Y, D89E, W115S
binding result: binds

B12: 1.98b (VHH)
VHH: B1 VHH with Q1E, S32K, D89E, W115S
binding result: binds

B13: 1.93b (VHH)
VHH: B1 VHH with Q1E, S32A, D89E, W115S
binding result: binds

B14: 1.90b (VHH)
VHH: B1 VHH with Q1E, S32V, D89E, W115S
binding result: binds

B15: 1.91b (VHH)
VHH: B1 VHH with Q1E, S32Q, D89E, W115S
binding result: binds

B16: 1.68b (VHH)
VHH: B1 VHH with S30G, S32N, K58I, W115S, Q117R, M120T
binding result: binds

B17: 1.75b (VHH)
VHH: B1 VHH with Q1E, M37I, A61T, D89E, W115S
binding result: binds

B18: 1.72b (VHH)
VHH: B1 VHH with T35S, K58I, W115S
binding result: binds

B19: 1.52b (VHH)
VHH: B1 VHH with S32N, F59Y
binding result: binds

B20: 1.82b (VHH)
VHH: B1 VHH with Q1E, S32T, A61T, D89E, W115S
binding result: binds

B21: 1.53b (VHH)
VHH: B1 VHH with S32N, G56S
binding result: binds

B22: 1.83b (VHH)
VHH: B1 VHH with Q1E, S32E, M37F, A61T, D89E, W115S
binding result: binds

B23: 1.56b (VHH)
VHH: B1 VHH with S32N, G56A, W115L
binding result: binds

B24: 1.106b (VHH)
VHH: B1 VHH with Q1E, S32E, M34K, A61T, D89E, W115S
binding result: binds

The remaining lines, values ahead:

binding result: binds
B25: 1.87b (VHH)
VHH: B1 VHH with Q1E, S32K, A61T, D89E, W115S

binding result: binds
B26: 1.60b (VHH)
VHH: B1 VHH with S32N, S53T, F59Y

binding result: binds
B27: 1.80b (VHH)
VHH: B1 VHH with Q1E, D89E, W115S

binding result: binds
B28: 1.96b (VHH)
VHH: B1 VHH with Q1E, S32T, D89E, W115S

binding result: binds
B29: 1.95b (VHH)
VHH: B1 VHH with Q1E, S32G, D89E, W115S

binding result: binds
B30: 1.54b (VHH)
VHH: B1 VHH with S32D, K58I

binding result: binds
B31: 1.100b (VHH)
VHH: B1 VHH with Q1E, S32L, D89E, W115S

binding result: binds
B32: 1.102b (VHH)
VHH: B1 VHH with Q1E, S32E, M34V, A61T, D89E, W115S

binding result: binds
B33: 1.67b (VHH)
VHH: B1 VHH with D31G, K58I, W115S

binding result: binds
B34: 1.62b (VHH)
VHH: B1 VHH with G56A, A61T, W115S

binding result: binds
B35: 1.86b (VHH)
VHH: B1 VHH with Q1E, S32A, A61T, D89E, W115S

binding result: binds
B36: 1.85b (VHH)
VHH: B1 VHH with Q1E, S32Y, A61T, D89E, W115S

binding result: binds
B37: 1.70b (VHH)
VHH: B1 VHH with S30G, G56A, A61T, W115S

binding result: binds
B38: 1.65b (VHH)
VHH: B1 VHH with W115S

binding result: binds
B39: 1.99b (VHH)
VHH: B1 VHH with Q1E, S32R, D89E, W115S

binding result: binds
B40: 1.71b (VHH)
VHH: B1 VHH with S30G, D31G, A61T, W115S

binding result: binds
B41: 1.49b (VHH)
VHH: B1 VHH with T35S, S53T

binding result: binds
B42: 1.107b (VHH)
VHH: B1 VHH with Q1E, S32E, M34Y, A61T, D89E, W115S

binding result: binds
B43: 1.108b (VHH)
VHH: B1 VHH with Q1E, S32E, M34A, D89E, W115S

binding result: binds
B44: 1.84b (VHH)
VHH: B1 VHH with Q1E, S32E, A61T, D89E, W115S

binding result: binds
B45: 1.104b (VHH)
VHH: B1 VHH with Q1E, S32E, M34F, A61T, D89E, W115S

binding result: binds
B46: 1.55b (VHH)
VHH: B1 VHH with S32N, W115S

binding result: binds
B47: 1.79b (VHH)
VHH: B1 VHH with Q1E, M37K, D89E, W115S

binding result: binds
B48: 1.88b (VHH)
VHH: B1 VHH with Q1E, S32R, A61T, D89E, W115S

binding result: binds
B49: 1.64b (VHH)
VHH: B1 VHH with Q1E, W115S
notes: also called Humabody 1.64b

binding result: binds
B50: 1.69b (VHH)
VHH: B1 VHH with S32N, T35S, K58I, W115S

binding result: binds
B51: 1.50b (VHH)
VHH: B1 VHH with S32N, G56T, V57I

binding result: binds
B52: 1.77b (VHH)
VHH: B1 VHH with Q1E, A61T, D89E, W115S
notes: also called Humabody 1.77b

binding result: binds
B53: 1.78b (VHH)
VHH: B1 VHH with Q1E, M37I, D89E, W115S

binding result: binds
B54: 1.105b (VHH)
VHH: B1 VHH with Q1E, S32E, M34L, A61T, D89E, W115S

binding result: binds
B55: 1.101b (VHH)
VHH: B1 VHH with Q1E, S32F, D89E, W115S

binding result: binds
B56: 1.73b (VHH)
VHH: B1 VHH with S25T, S53A, K58R, A61T, W115S

binding result: binds
B57: 1.59b (VHH)
VHH: B1 VHH with S32N, T35S, G56S

binding result: binds
B58: 1.103b (VHH)
VHH: B1 VHH with Q1E, S32E, M34Q, A61T, D89E, W115S

binding result: binds
B59: 1.94b (VHH)
VHH: B1 VHH with Q1E, S32W, D89E, W115S
